Results taken from publication PMC11914125.
pKd: −log10 of the molar value.

Legend:
[1] = molecular target: DNA polymerase beta (full-length) (Homo sapiens) (UniProt P06746); test: EMSA; settings: EMSA: 20 nM NCP, 20 mM HEPES pH 7.5, 100 mM NaCl, 1 mM EDTA, 1 mM DTT, 0.1 mg/ml BSA, 20 min, 4 °C, 5% native PAGE, 0.2x TBE
[2] = molecular target: Pol beta lyase domain (8 kDa) (rat) (UniProt P06766); test: EMSA; settings: EMSA: 20 nM NCP, 20 mM HEPES pH 7.5, 100 mM NaCl, 1 mM EDTA, 1 mM DTT, 0.1 mg/ml BSA, 20 min, 4 °C, 5% native PAGE, 0.2x TBE

Sequence: ATCGGATGTATATATCTGACACGTGCCTGGAGACTAGGGAGTAATCCCCTTGGCGGTTAAAACGCGGGGGACAGCGCGTACGTGCGTTTAAGCGGTGCTAGAGCTGTCTACGACCAATTGAGCGGCCTCGGCACCGGGATTCTCGAT (double strand) [ND-NCP]
- pKd [1]: 6.66
- pKd [2]: 6.35

Sequence: ATCGGATGTATATATCTGACACGTGCCTGGAGACTAGGGAGTAATCCCCTTGGCGGTTAAAACGCGGGGGACAGCGCGTACGTGCGTTTAAGCGGTGCTAGAGCTGTCTACGACCAATTGAGCGGCCTCGGCACCGGGATTCTCGAT / ATCGAGAATCCCGGTGCCGAGGCCGCTCAATTGGTCGTAGACAGCTCTAGCACCGCTTAAACGCACGTACGCGCTGTCCCCCGCGT / TTAACCGCCAAGGGGATTACTCCCTAGTCTCCAGGCACGTGTCAGATATATCCATCCGAT [Gap-NCP-1.5]
- pKd ([1]; 5'-phosphate on strand 3): 6.83

Sequence: ATCGGATGTATATATCTGACACGTGCCTGGAGACTAGGGAGTAATCCCCTTGGCGGTTAAAACGCGGGGGACAGCGCGTACGTGCGTTTAAGCGGTGCTAGAGCTGTCTACGACCAATTGAGCGGCCTCGGCACCGGGATTCTCGAT / ATCGAGAATCCCGGTGCCGAGGCCGCTCAATTGGTCGTAGACAGCTCTAGCACCGCTTAAACGCACGTACGCGCTGTCCCCCGCGTTTTAACCGC / AAGGGGATTACTCCCTAGTCTCCAGGCACGTGTCAGATATATCCATCCGAT [Gap-NCP-2.5]
- pKd ([1]; 5'-phosphate on strand 3): 6.93

Sequence: ATCGGATGTATATATCTGACACGTGCCTGGAGACTAGGGAGTAATCCCCTTGGCGGTTAAAACGCGGGGGACAGCGCGTACGTGCGTTTAAGCGGTGCTAGAGCTGTCTACGACCAATTGAGCGGCCTCGGCACCGGGATTCTCGAT / ATCGAGAATCCCGGTGCCGAGGCCGCTCAATTGGTCGTAGACAGCTCTAGCACCGCTTAAACGCACGTACGCGCTGTCCCCCGCGTTTTAACCGCCAAGGGGATTA / TCCCTAGTCTCCAGGCACGTGTCAGATATATCCATCCGAT [Gap-NCP-3.5]
- pKd ([1]; 5'-phosphate on strand 3): 6.85

Sequence: ATCGGATGTATATATCTGACACGTGCCTGGAGACTAGGGAGTAATCCCCTTGGCGGTTAAAACGCGGGGGACAGCGCGTACGTGCGTTTAAGCGGTGCTAGAGCTGTCTACGACCAATTGAGCGGCCTCGGCACCGGGATTCTCGAT / ATCGAGAATCCCGGTGCCGAGGCCGCTCAATTGGTCGTAGACAGCTCTAGCACCGCTTAAACGCACGTACGCGCTGTCCCCCGCGTTTTAACCGCCAAGGGGATTACTCCCTA / TCTCCAGGCACGTGTCAGATATATCCATCCGAT [Gap-NCP-4.5+4]
- pKd ([1]; 5'-phosphate on strand 3): 7.03

Sequence: ATCGGATGTATATATCTGACACGTGCCTGGAGACTAGGGAGTAATCCCCTTGGCGGTTAAAACGCGGGGGACAGCGCGTACGTGCGTTTAAGCGGTGCTAGAGCTGTCTACGACCAATTGAGCGGCCTCGGCACCGGGATTCTCGAT / ATCGAGAATCCCGGTGCCGAGGCCGCTCAATTGGTCGTAGACAGCTCTAGCACCGCTTAAACGCACGTACGCGCTGTCCCCCGCGTTTTAACCGCCAAGGGGATTACTCCCTAG / CTCCAGGCACGTGTCAGATATATCCATCCGAT [Gap-NCP-4.5+3]
- pKd ([1]; 5'-phosphate on strand 3): 6.94

Sequence: ATCGGATGTATATATCTGACACGTGCCTGGAGACTAGGGAGTAATCCCCTTGGCGGTTAAAACGCGGGGGACAGCGCGTACGTGCGTTTAAGCGGTGCTAGAGCTGTCTACGACCAATTGAGCGGCCTCGGCACCGGGATTCTCGAT / ATCGAGAATCCCGGTGCCGAGGCCGCTCAATTGGTCGTAGACAGCTCTAGCACCGCTTAAACGCACGTACGCGCTGTCCCCCGCGTTTTAACCGCCAAGGGGATTACTCCCTAGT / TCCAGGCACGTGTCAGATATATCCATCCGAT [Gap-NCP-4.5+2]
- pKd ([1]; 5'-phosphate on strand 3): 6.86

Sequence: ATCGGATGTATATATCTGACACGTGCCTGGAGACTAGGGAGTAATCCCCTTGGCGGTTAAAACGCGGGGGACAGCGCGTACGTGCGTTTAAGCGGTGCTAGAGCTGTCTACGACCAATTGAGCGGCCTCGGCACCGGGATTCTCGAT / ATCGAGAATCCCGGTGCCGAGGCCGCTCAATTGGTCGTAGACAGCTCTAGCACCGCTTAAACGCACGTACGCGCTGTCCCCCGCGTTTTAACCGCCAAGGGGATTACTCCCTAGTCT / CAGGCACGTGTCAGATATATACATCCGAT [Gap-NCP-4.5]
- pKd ([1]; 5'-phosphate on strand 3): 7.01
- pKd ([2]; 5'-phosphate on strand 3): 6.90

Sequence: ATCGGATGTATATATCTGACACGTGCCTGGAGACTAGGGAGTAATCCCCTTGGCGGTTAAAACGCGGGGGACAGCGCGTACGTGCGTTTAAGCGGTGCTAGAGCTGTCTACGACCAATTGAGCGGCCTCGGCACCGGGATTCTCGAT / ATCGAGAATCCCGGTGCCGAGGCCGCTCAATTGGTCGTAGACAGCTCTAGCACCGCTTAAACGCACGTACGCGCTGTCCCCCGCGTTTTAACCGCCAAGGGGATTACTCCCTAGTCTCCAGGCACGT / TCAGATATATCCATCCGAT [Gap-NCP-5.5]
- pKd ([1]; 5'-phosphate on strand 3): 7.29
